Reference: patent publication US20230417748A1 (GREEN CROSS, published 2023)

Experiments:
Assay in all cases: ELISA (FIG. 7)
[1] = biological target: T1, RBD-N501Y (Sino biologics, 40592-V08H82) (SARS-CoV-2, UniProt P0DTC2 319-541)
T1 construct: domain: RBD

[2] = biological target: Spike-D614G (Sino biologics, 40589-V08B4) (SARS-CoV-2, UniProt P0DTC2 16-1213)
[3] = biological target: T2, RBD-V367F (Sino biologics, 40592-V08H1) (SARS-CoV-2, UniProt P0DTC2 319-541)
T2 construct: domain: RBD

[4] = biological target: T3, RBD-T478I (Sino biologics, 40592-V08H30) (SARS-CoV-2, UniProt P0DTC2 319-541)
T3 construct: domain: RBD

[5] = biological target: T4, RBD-N439K (Sino biologics, 40592-V08H14) (SARS-CoV-2, UniProt P0DTC2 319-541)
T4 construct: domain: RBD

[6] = biological target: T5, RBD-A522S (Sino biologics, 40592-V08H21) (SARS-CoV-2, UniProt P0DTC2 319-541)
T5 construct: domain: RBD

[7] = biological target: T6, RBD-P479S (Sino biologics, 40592-V08H57) (SARS-CoV-2, UniProt P0DTC2 319-541)
T6 construct: domain: RBD

[8] = biological target: T7, RBD-S477N (Sino biologics, 40592-V08H46) (SARS-CoV-2, UniProt P0DTC2 319-541)
T7 construct: domain: RBD

Measured: binding result

B1: M5-4 (antibody, V domains shown)
VH: EVQLVESGGGLVKPGGSLRLSCAASGFTFSSRGMSWVRQAPGKGLEWVSTISFGDIYTYYPDSVKGRFTISRDNAKNSLYLQMNSLRAEDTAVYYCARPNDGYFDYWGQGTLVTVSS
VL: DIQMTQSPSSLSASVGDRVTITCKASQSVSNDVAWYQQKPGKAPKLLIYYASNRYTGVPSRFSGSGSGTDFTLTISSLQPEDFATYYCQQSYSAPYTFGGGTKVEIKR
binds: all assays above
